Test results published in US20220073643A1 (NANJING GENSCRIPT BIOTECH, published 2022).
Numbering of substitutions follows the chain as printed.

B1: 252E7C9 (antibody, V domains shown)
VH: QTYLQQSGAELVRSGASVKMSCRTSGYSFTSHNMHWVKQTPGQGLEWIGYIYPGNGGSYYNQKFKGKAILTADTSSSTAYMQISSLTSEDSAVYFCTRDYYGNSFVYWGQGTLVTVSA
VL: DVVMTQSPSSLTEKTGEKVSMSCKSSQSLLNSGNQKNYLTWYQQKPGQPPKLLIYWASTRESGVPDRFTGSGSGTDFTLTISSLQTEDLAIYYCQNNFRYPFTFGAGTKLELK
B2: 181C7B2 (antibody, V domains shown)
VH: QVQLKQSGPGLVQPSQSLSITCTVSGFSLTYYGVHWVRQSPGKGLEWLGVIWRGGNTDYNAAFISRLSINKDNSKSQVFFKMNSLQPNDTAIYYCARAAYYGNCFDYWGQGTTLTVSS
VL: DIVMTQSPSSLTVTAGEKVTMSCKSSQSLLNSGNQKNYLTWYQQKPGQPPKLLIYWASTRESGVPDRFTGSGSGTDFTLTISSVQAEDLAVYYCQNNYIYPLTFGAGTKLELK
B3: 250F4G1 (antibody, V domains shown)
VH: B1 VH with T2A, R23K, T24A, S28T, G57R, S58T, Y59N, I69T, V106A
VL: B2 VL with V13E, T14K, A15V, K18R, T20S, L30F, N97D, I99W, L102F
B4: 252F1B10 (antibody, V domains shown)
VH: B1 VH with T2A, R23K, T24A, S28T, S58T, Y59N, I69T, S84N, V106A
VL: B2 VL with V13E, T14K, K18R, T20S, L30F, N97D, I99R, L102F
B5: 248G8E8 (antibody, V domains shown)
VH: QVQLKESGPGLVAPSQSLSITCTVSGFSLTTYGVSWVRQPPGKGLEWLGVIWGDGSTNYHSTLISRLRISKDKSKSQVFLKLNSLQTDDTATYYCAKAGRGNALDYWGQGTSVTVSS
VL: B2 VL with M4L, N97D, I99S, Y100F
B6: 186G12H3 (antibody, V domains shown)
VH: EVMLVESGGGLVKPGGSLKLSCAASRFTLSSYAMSWVRQTPEKRLEWVATISSGGSYTYYFDSVKGRFTISRDTAKNTLNLQMSSLRSEDTAMYYCARLYYGNALDYWGQGTSVTVSS
VL: B2 VL with M21V, K109T
B7: 250F4G4 (antibody, V domains shown)
VH: B1 VH with T2A, R23K, T24A, S28T, G57R, S58T, Y59N, I69T, V106A
VL: B2 VL with V13E, T14K, A15V, K18R, T20S, L30F, N97D, I99W, L102F
B8: 194A2F7 (antibody, V domains shown)
VH: QIQLVQSGPELKKPGETVKISCKASGYTFTDYLIHWVKQAPGKGLKWMGWINTETGEPTYADDFKGRFALSLETSASTACLQINNLKNEDTATYFCARIYYGNSFDYWGQGTTLTVSS
VL: B2 VL with T12P, S22T, S28N, N37S, S62T, N97A, I99R, Y100F, L102F, K109R
B9: 252C10F6 (antibody, V domains shown)
VH: QVHLKQSGRGLVQPSQSLSITCTVSGFSLPNYGVHWVRQPPGKGLEWLGVIWSGGNTDYNTVFKARLSITKDNSKSQVFFKMNSLQADDTAIYYCARNLYGNYDYAMDYWGQGTSVTVSS
VL: DIVMTQSPATLSVTPGDRVSLSCRASQSISDYLHWYQQKSHESPRLLIKYASQSISGIPSRFSGSGSGSEFTLSINSVEPEDVGVYYCQNGHSFPFTFGSGTKLEIK

Target: human Claudin18.2 (human)
Assay: cell-based or functional assay

Binder | CDC % Relative activity [%] | CDC EC50 [µg/mL]
B1 | 154 | 1.19
B2 | 44 | 3.59
B3 | 112 | 1.64
B4 | 104 | 1.76
B5 | 114 | 1.61
B6 | 114 | 1.39
B7 | 126 | 1.45
B8 | 51.7 | 3.06
B9 | 3.42 | 53.6
